Holding throughout (assay): SPR, ratio of KD to KD of WT
Background: SPR reads the build-up and loss of mass on a sensor chip optically.

The target of one assay is T1, FVII(a) variant E116A (human, UniProt P08709 61-466).
T1 construct: hFVII alanine variant in cell culture supernatant
T1 sequence: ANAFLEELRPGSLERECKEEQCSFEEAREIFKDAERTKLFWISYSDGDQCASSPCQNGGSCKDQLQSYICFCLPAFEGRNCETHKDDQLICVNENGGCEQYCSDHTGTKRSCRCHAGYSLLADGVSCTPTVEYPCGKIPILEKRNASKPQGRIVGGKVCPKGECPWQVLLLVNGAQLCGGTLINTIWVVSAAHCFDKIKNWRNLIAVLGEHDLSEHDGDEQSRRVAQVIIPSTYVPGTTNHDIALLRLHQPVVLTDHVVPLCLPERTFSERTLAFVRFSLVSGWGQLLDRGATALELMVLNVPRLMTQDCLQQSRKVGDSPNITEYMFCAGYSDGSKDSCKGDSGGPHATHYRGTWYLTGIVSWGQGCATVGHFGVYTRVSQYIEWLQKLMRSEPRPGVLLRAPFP
The method, then: (§1) The running buffer was prepared by diluting 10-fold the 10×HBS-P buffer (supplied by GE Healthcare) and supplemented with 1 mg/ml BSA and 5 mM CaCl2 to give 10 mM HEPES, 150 mM NaCl, 0.05% v/v Polysorbate 20, pH 7.4, 5 mM CaCl2, 1 mg/ml bovine serum albumin (BSA). […] Regeneration of the chip was achieved using 10 mM HEPES, 150 mM NaCl, 20 mM EDTA, 0.05 v/v Polysorbate 20, pH 7.4. Binding data were analysed according to a 1:1 Kinetic model and steady state analysis using BiaEvaluation 4.1 supplied by the manufacturer (Biacore AB, Uppsala, Sweden). Wherever possible, ka, kd and KD values from 1:1 kinetic fitting model are reported. […] An amino acid residue is considered a hot-spot residue if substitution of that amino acid residue with alanine results in an affinity reduction of ten (10) fold or more relative to the wild type.

For another assay, the target named is T2, FVII(a) variant V252A (human, UniProt P08709 61-466).
T2 construct: hFVII alanine variant in cell culture supernatant
T2 sequence: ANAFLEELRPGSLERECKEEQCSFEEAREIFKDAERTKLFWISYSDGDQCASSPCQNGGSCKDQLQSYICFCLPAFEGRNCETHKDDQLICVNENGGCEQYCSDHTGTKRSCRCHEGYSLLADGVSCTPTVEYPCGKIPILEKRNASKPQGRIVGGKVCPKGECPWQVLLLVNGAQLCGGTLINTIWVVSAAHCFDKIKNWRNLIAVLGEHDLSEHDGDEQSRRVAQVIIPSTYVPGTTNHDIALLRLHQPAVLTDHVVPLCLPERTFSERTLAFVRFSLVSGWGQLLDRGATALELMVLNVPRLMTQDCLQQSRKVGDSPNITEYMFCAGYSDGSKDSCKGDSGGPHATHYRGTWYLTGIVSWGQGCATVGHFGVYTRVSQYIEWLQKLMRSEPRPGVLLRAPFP
As for the experimental part: as §1

The target of the next assay is T3, FVII(a) variant L120A (human, UniProt P08709 61-466).
T3 construct: hFVII alanine variant in cell culture supernatant
T3 sequence: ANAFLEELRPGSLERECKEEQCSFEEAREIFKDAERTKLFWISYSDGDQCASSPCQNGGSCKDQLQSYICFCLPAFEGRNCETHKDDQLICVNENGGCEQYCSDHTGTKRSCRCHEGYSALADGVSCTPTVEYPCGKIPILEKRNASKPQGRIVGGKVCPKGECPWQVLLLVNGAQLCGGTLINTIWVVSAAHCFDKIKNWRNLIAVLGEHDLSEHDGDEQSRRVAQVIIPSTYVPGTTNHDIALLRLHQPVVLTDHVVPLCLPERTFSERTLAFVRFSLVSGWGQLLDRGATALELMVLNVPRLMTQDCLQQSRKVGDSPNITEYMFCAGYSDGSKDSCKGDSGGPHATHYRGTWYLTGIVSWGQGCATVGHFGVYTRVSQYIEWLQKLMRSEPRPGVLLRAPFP
As for the experimental part: as §1

In another assay the target is T4, FVII(a) variant E265A (human, UniProt P08709 61-466).
T4 construct: hFVII alanine variant in cell culture supernatant
T4 sequence: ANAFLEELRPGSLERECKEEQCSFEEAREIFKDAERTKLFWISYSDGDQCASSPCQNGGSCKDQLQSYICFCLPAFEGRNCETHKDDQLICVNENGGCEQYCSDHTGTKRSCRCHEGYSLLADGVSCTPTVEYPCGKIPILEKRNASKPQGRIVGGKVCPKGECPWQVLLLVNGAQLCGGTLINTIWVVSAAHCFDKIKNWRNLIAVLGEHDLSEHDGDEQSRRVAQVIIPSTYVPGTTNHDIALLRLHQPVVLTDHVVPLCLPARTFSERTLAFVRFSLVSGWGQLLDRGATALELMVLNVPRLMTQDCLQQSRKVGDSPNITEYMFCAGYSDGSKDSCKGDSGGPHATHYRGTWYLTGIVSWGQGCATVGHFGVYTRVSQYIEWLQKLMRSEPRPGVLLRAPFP
The method, then:
as §1

Another assay deals with T5, FVII(a) variant N184A (human, UniProt P08709 61-466).
T5 construct: hFVII alanine variant in cell culture supernatant
T5 sequence: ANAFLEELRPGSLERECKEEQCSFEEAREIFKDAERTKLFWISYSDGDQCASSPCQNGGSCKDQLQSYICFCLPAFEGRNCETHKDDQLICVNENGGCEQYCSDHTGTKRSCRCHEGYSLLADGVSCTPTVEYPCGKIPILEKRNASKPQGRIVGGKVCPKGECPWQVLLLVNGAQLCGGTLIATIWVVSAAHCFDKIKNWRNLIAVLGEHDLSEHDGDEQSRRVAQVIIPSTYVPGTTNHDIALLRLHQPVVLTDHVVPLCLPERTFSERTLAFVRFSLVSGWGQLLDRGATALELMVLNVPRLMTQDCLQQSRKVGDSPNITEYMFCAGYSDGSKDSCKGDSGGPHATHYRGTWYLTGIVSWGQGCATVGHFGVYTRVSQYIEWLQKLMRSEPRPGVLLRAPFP
The method, then:
as §1

B1: mAb0842(OA) (antibody, human IgG4 S228P, kappa)
heavy: QVQLQESGPGLVKPSQTLSLTCTVSGYSISSDSAWSWIRQPPGKGLEWIGYIQYSGSTNYNPSLKSRVTISRDTSKNQFSLKLSSVTAADTAVYYCARSVNYYGNSFAVGYWGQGTLVTVSSASTKGPSVFPLAPCSRSTSESTAALGCLVKDYFPEPVTVSWNSGALTSGVHTFPAVLQSSGLYSLSSVVTVPSSSLGTKTYTCNVDHKPSNTKVDKRVESKYGPPCPPCPAPEFLGGPSVFLFPPKPKDTLMISRTPEVTCVVVDVSQEDPEVQFNWYVDGVEVHNAKTKPREEQFNSTYRVVSVLTVLHQDWLNGKEYKCKVSNKGLPSSIEKTISKAKGQPREPQVYTLPPSQEEMTKNQVSLSCAVKGFYPSDIAVEWESNGQPENNYKTTPPVLDSDGSFFLVSRLTVDKSRWQEGNVFSCSVMHEALHNHYTQKSLSLSLGK
light: EIVLTQSPATLSLSPGERATLSCRASQGISDYLHWYQQKPGEAPRLLIKYTSQPATGIPARFSGSGSGTDFTLTISSLEPEDFAVYYCQNGHSFPLTFGQGTKLEIKRTVAAPSVFIFPPSDEQLKSGTASVVCLLNNFYPREAKVQWKVDNALQSGNSQESVTEQDSKDSTYSLSSTLTLSKADYEKHKVYACEVTHQGLSSPVTKSFNRGEC
chain: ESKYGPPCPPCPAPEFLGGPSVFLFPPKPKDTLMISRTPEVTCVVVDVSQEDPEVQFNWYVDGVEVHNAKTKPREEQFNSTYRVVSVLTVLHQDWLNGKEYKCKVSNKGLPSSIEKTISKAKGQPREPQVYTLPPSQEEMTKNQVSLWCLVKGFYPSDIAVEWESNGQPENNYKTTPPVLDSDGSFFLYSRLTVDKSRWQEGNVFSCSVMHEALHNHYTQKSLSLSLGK
notes: also called monovalent humanized 11F2 antibody; one-armed anti-FVII(a) antibody
For B1, the “Fold diff (Variant/WT)” value in the assay with FVII(a) variant E116A is 1.6 fold; with FVII(a) variant V252A, 0.9 fold; with FVII(a) variant L120A, 2 fold; in the assay with FVII(a) variant E265A, 3.2 fold; in the assay with FVII(a) variant N184A, 6.3 fold.

The values above are taken from patent US20220064329A1 (Novo Nordisk, published 2022).
